Patent US20250215097A1 (BEIJING TIANNUOJIANCHENG PHARMA TECH, published 2025)

Molecular target: T1, human CCR8 (human, UniProt P51685 1-355)
T1 construct: Full-length human CCR8 stably expressed on CHO or HEK293 cells; also endogenous on HuT78 cells in one ADCC assay; also called hCCR8; CHO-hCCR8
Experiment: flow cytometry, purified Fab on CHO-hCCR8 cells

T1 sequence (P51685 whole entry): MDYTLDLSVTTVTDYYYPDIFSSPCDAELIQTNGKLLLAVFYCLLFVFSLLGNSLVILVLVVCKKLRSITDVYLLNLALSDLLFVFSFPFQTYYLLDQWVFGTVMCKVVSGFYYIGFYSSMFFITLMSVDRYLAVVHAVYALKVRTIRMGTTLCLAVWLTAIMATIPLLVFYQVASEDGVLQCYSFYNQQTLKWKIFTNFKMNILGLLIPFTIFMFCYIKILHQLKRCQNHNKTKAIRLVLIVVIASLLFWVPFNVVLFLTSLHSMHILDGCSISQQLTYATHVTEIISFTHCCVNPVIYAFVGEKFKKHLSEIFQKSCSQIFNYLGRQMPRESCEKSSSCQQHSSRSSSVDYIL

Binder | EC50 [nM]
144D2 G34I (Fab, V domains shown, Purified Fab mutant) VH: EVQLVESGGGLVQPKGSLKLSCAASGFTFNAFAMNWVRQAPGKGLEWVARIRSKSNNYATYYADSVIDRFTISRDDSQSMLYLQMNNLKTEDTAMYYCVRGKEAGAYYAMDYWGQGTSVTVSS VL: DIVMTQAAPSVPVTPGESVSISCRSSKSLLHSNINTYLYWFLQRPGQSPQLLIYRMSNLASGVPDRFSGSGSGTAFTLRISRVEAEDVGVYYCMQHLEYPLTFGAGTKLEIK | 3.87
144D2 G34R (Fab, V domains shown, Purified Fab mutant) VH: EVQLVESGGGLVQPKGSLKLSCAASGFTFNAFAMNWVRQAPGKGLEWVARIRSKSNNYATYYADSVIDRFTISRDDSQSMLYLQMNNLKTEDTAMYYCVRGKEAGAYYAMDYWGQGTSVTVSS VL: DIVMTQAAPSVPVTPGESVSISCRSSKSLLHSNRNTYLYWFLQRPGQSPQLLIYRMSNLASGVPDRFSGSGSGTAFTLRISRVEAEDVGVYYCMQHLEYPLTFGAGTKLEIK | 1.34
144D2 G34T (Fab, V domains shown, Purified Fab mutant) VH: EVQLVESGGGLVQPKGSLKLSCAASGFTFNAFAMNWVRQAPGKGLEWVARIRSKSNNYATYYADSVIDRFTISRDDSQSMLYLQMNNLKTEDTAMYYCVRGKEAGAYYAMDYWGQGTSVTVSS VL: DIVMTQAAPSVPVTPGESVSISCRSSKSLLHSNTNTYLYWFLQRPGQSPQLLIYRMSNLASGVPDRFSGSGSGTAFTLRISRVEAEDVGVYYCMQHLEYPLTFGAGTKLEIK | 2.83
144D2 G34V (Fab, V domains shown, Purified Fab mutant) VH: EVQLVESGGGLVQPKGSLKLSCAASGFTFNAFAMNWVRQAPGKGLEWVARIRSKSNNYATYYADSVIDRFTISRDDSQSMLYLQMNNLKTEDTAMYYCVRGKEAGAYYAMDYWGQGTSVTVSS VL: DIVMTQAAPSVPVTPGESVSISCRSSKSLLHSNVNTYLYWFLQRPGQSPQLLIYRMSNLASGVPDRFSGSGSGTAFTLRISRVEAEDVGVYYCMQHLEYPLTFGAGTKLEIK | 3.16
144D2 G34Y (Fab, V domains shown, Purified Fab mutant) VH: EVQLVESGGGLVQPKGSLKLSCAASGFTFNAFAMNWVRQAPGKGLEWVARIRSKSNNYATYYADSVIDRFTISRDDSQSMLYLQMNNLKTEDTAMYYCVRGKEAGAYYAMDYWGQGTSVTVSS VL: DIVMTQAAPSVPVTPGESVSISCRSSKSLLHSNYNTYLYWFLQRPGQSPQLLIYRMSNLASGVPDRFSGSGSGTAFTLRISRVEAEDVGVYYCMQHLEYPLTFGAGTKLEIK | 2.22
144D2 M56A (Fab, V domains shown, Purified Fab mutant) VH: EVQLVESGGGLVQPKGSLKLSCAASGFTFNAFAMNWVRQAPGKGLEWVARIRSKSNNYATYYADSVIDRFTISRDDSQSMLYLQMNNLKTEDTAMYYCVRGKEAGAYYAMDYWGQGTSVTVSS VL: DIVMTQAAPSVPVTPGESVSISCRSSKSLLHSNGNTYLYWFLQRPGQSPQLLIYRASNLASGVPDRFSGSGSGTAFTLRISRVEAEDVGVYYCMQHLEYPLTFGAGTKLEIK | 4.71
144D2 M56G (Fab, V domains shown, Purified Fab mutant) VH: EVQLVESGGGLVQPKGSLKLSCAASGFTFNAFAMNWVRQAPGKGLEWVARIRSKSNNYATYYADSVIDRFTISRDDSQSMLYLQMNNLKTEDTAMYYCVRGKEAGAYYAMDYWGQGTSVTVSS VL: DIVMTQAAPSVPVTPGESVSISCRSSKSLLHSNGNTYLYWFLQRPGQSPQLLIYRGSNLASGVPDRFSGSGSGTAFTLRISRVEAEDVGVYYCMQHLEYPLTFGAGTKLEIK | 4.85
144D2 M56T (Fab, V domains shown, Purified Fab mutant) VH: EVQLVESGGGLVQPKGSLKLSCAASGFTFNAFAMNWVRQAPGKGLEWVARIRSKSNNYATYYADSVIDRFTISRDDSQSMLYLQMNNLKTEDTAMYYCVRGKEAGAYYAMDYWGQGTSVTVSS VL: DIVMTQAAPSVPVTPGESVSISCRSSKSLLHSNGNTYLYWFLQRPGQSPQLLIYRTSNLASGVPDRFSGSGSGTAFTLRISRVEAEDVGVYYCMQHLEYPLTFGAGTKLEIK | 2.69
144D2 N33A (Fab, V domains shown, Purified Fab mutant from E. coli TG1, Ni-NTA purified) VH: EVQLVESGGGLVQPKGSLKLSCAASGFTFNAFAMNWVRQAPGKGLEWVARIRSKSNNYATYYADSVIDRFTISRDDSQSMLYLQMNNLKTEDTAMYYCVRGKEAGAYYAMDYWGQGTSVTVSS VL: DIVMTQAAPSVPVTPGESVSISCRSSKSLLHSAGNTYLYWFLQRPGQSPQLLIYRMSNLASGVPDRFSGSGSGTAFTLRISRVEAEDVGVYYCMQHLEYPLTFGAGTKLEIK | 8.27
144D2 N33I (Fab, V domains shown, Purified Fab mutant) VH: EVQLVESGGGLVQPKGSLKLSCAASGFTFNAFAMNWVRQAPGKGLEWVARIRSKSNNYATYYADSVIDRFTISRDDSQSMLYLQMNNLKTEDTAMYYCVRGKEAGAYYAMDYWGQGTSVTVSS VL: DIVMTQAAPSVPVTPGESVSISCRSSKSLLHSIGNTYLYWFLQRPGQSPQLLIYRMSNLASGVPDRFSGSGSGTAFTLRISRVEAEDVGVYYCMQHLEYPLTFGAGTKLEIK | 6.68
144D2 N33R (Fab, V domains shown, Purified Fab mutant) VH: EVQLVESGGGLVQPKGSLKLSCAASGFTFNAFAMNWVRQAPGKGLEWVARIRSKSNNYATYYADSVIDRFTISRDDSQSMLYLQMNNLKTEDTAMYYCVRGKEAGAYYAMDYWGQGTSVTVSS VL: DIVMTQAAPSVPVTPGESVSISCRSSKSLLHSRGNTYLYWFLQRPGQSPQLLIYRMSNLASGVPDRFSGSGSGTAFTLRISRVEAEDVGVYYCMQHLEYPLTFGAGTKLEIK | 6.75
144D2 N33V (Fab, V domains shown, Purified Fab mutant) VH: EVQLVESGGGLVQPKGSLKLSCAASGFTFNAFAMNWVRQAPGKGLEWVARIRSKSNNYATYYADSVIDRFTISRDDSQSMLYLQMNNLKTEDTAMYYCVRGKEAGAYYAMDYWGQGTSVTVSS VL: DIVMTQAAPSVPVTPGESVSISCRSSKSLLHSVGNTYLYWFLQRPGQSPQLLIYRMSNLASGVPDRFSGSGSGTAFTLRISRVEAEDVGVYYCMQHLEYPLTFGAGTKLEIK | 5.72
144D2 N33Y (Fab, V domains shown, Purified Fab mutant) VH: EVQLVESGGGLVQPKGSLKLSCAASGFTFNAFAMNWVRQAPGKGLEWVARIRSKSNNYATYYADSVIDRFTISRDDSQSMLYLQMNNLKTEDTAMYYCVRGKEAGAYYAMDYWGQGTSVTVSS VL: DIVMTQAAPSVPVTPGESVSISCRSSKSLLHSYGNTYLYWFLQRPGQSPQLLIYRMSNLASGVPDRFSGSGSGTAFTLRISRVEAEDVGVYYCMQHLEYPLTFGAGTKLEIK | 13.8
